In PMC7768682 (Proceedings of the National Academy of Sciences of the …, 2020):
Ends that are not written are not given here.

Key:
Test in all cases: BLI
talin head t1-435 = talin head t1-435 (human, UniProt Q9Y490 1-435)
talin head t1-405 = talin head t1-405 (human, UniProt Q9Y490 1-405)
talin head t1-400 = talin head t1-400 (human, UniProt Q9Y490 1-400)

Measured: binding result

Chain of talin head t1-405 (Q9Y490 1-405): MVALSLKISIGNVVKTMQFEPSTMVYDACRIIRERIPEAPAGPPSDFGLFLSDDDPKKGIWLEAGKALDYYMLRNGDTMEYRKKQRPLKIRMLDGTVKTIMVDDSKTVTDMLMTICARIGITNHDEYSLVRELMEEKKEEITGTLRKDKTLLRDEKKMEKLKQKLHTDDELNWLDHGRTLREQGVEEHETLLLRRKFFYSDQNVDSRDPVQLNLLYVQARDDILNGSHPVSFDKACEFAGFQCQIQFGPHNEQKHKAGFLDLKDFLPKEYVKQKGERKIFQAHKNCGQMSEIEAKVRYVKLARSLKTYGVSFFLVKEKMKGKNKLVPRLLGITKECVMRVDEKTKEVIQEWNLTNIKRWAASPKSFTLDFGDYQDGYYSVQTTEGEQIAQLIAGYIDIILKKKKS
Chain of talin head t1-435 (Q9Y490 1-435): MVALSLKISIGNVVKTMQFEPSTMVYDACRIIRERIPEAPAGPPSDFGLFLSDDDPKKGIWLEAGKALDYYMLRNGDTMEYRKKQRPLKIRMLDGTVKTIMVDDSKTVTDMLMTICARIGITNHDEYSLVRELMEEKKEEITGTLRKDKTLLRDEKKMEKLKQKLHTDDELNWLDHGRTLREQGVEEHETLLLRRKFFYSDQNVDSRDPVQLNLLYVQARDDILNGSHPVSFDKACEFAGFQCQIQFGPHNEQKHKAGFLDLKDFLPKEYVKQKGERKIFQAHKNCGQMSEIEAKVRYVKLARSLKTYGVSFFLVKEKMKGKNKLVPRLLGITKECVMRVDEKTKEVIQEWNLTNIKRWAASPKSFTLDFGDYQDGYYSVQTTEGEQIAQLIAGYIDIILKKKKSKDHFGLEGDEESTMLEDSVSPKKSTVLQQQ
Chain of talin head t1-400 (Q9Y490 1-400): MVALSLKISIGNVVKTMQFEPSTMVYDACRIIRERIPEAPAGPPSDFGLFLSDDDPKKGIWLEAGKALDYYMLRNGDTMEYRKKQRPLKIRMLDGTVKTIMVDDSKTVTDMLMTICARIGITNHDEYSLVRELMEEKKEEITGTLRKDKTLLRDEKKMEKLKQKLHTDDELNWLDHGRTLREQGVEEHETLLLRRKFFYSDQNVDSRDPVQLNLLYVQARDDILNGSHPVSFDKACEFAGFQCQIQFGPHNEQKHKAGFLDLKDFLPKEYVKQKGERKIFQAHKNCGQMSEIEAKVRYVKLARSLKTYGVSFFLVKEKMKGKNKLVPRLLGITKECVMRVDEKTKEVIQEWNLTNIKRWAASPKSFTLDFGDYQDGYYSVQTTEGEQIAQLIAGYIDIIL

{GST}-GSKLLITIHDRKEFAKFEEERARAKWDTANNPLYKEATSTFTNITYRGT (domain or fragment) [GST-integrin β3 cytoplasmic tail fusion, wild type (WT-β3)]
binds: all assays above
